Legend:
Test in all cases: ELISA; attachment factors coated at 280.0 pmol/mL in carbonate-bicarbonate buffer overnight at 4 C, blocked with 1.0% BSA; P protein (GI.1 or GII.4) 10.0 ug/mL, 1 h at 37 C; detected with anti-HuNoV monoclonal antibodies; positive when S/N >= 2.0
[1] = target: recombinant C2JX39 (DNA topoisomerase 4 subunit A) (Lactobacillus rhamnosus YQ001)
[2] = target: recombinant oyster heat shock protein 70 (oyster)
[3] = target: recombinant C2JVE6 (ATP-dependent zinc metalloprotease) (Lactobacillus rhamnosus YQ001)
[4] = target: recombinant C2K0J4 (Penicillin-binding protein, transpeptidase domain protein) (Lactobacillus rhamnosus YQ001)

Chain of GI.1 HuNoV P protein (domain or fragment) (Q83884 226-530 limits assumed): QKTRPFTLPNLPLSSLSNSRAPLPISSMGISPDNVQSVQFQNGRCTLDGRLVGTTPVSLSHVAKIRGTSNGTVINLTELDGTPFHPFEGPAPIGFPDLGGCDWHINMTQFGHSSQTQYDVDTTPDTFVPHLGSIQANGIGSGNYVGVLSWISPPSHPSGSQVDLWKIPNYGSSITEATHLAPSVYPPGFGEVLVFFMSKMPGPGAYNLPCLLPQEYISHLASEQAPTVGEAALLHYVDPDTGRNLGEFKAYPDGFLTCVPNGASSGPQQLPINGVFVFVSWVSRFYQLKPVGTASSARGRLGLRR

Substance	S/N ratio [1]	S/N ratio [2]	S/N ratio [3]	S/N ratio [4]
GI.1 HuNoV P protein (domain or fragment)	16.4	15.5	16.6	16.4
GII.4 HuNoV P protein (domain or fragment)	–	16	16.7	17.3
